{
  "source": "IntAct's records for PubMed 25533949",
  "parents": {"B1": {"name": "Tyrosine--tRNA ligase, cytoplasmic (Homo sapiens), P54577 (parent)", "chain": "MGDAPSPEEKLHLITRNLQEVLGEEKLKEILKERELKIYWGTATTGKPHVAYFVPMSKIADFLKAGCEVTILFADLHAYLDNMKAPWELLELRVSYYENVIKAMLESIGVPLEKLKFIKGTDYQLSKEYTLDVYRLSSVVTQHDSKKAGAEVVKQVEHPLLSGLLYPGLQALDEEYLKVDAQFGGIDQRKIFTFAEKYLPALGYSKRVHLMNPMVPGLTGSKMSSSEEESKIDLLDRKEDVKKKLKKAFCEPGNVENNGVLSFIKHVLFPLKSEFVILRDEKWGGNKTYTAYVDLEKDFAAEVVHPGDLKNSVEVALNKLLDPIREKFNTPALKKLASAAYPDPSKQKPMAKGPAKNSEPEEVIPSRLDIRVGKIITVEKHPDADSLYVEKIDVGEAEPRTVVSGLVQFVPKEELQDRLVVVLCNLKPQKMRGVESQGMLLCASIEGINRQVEPLDPPAGSAPGEHVFVKGYEKGQPDEELKPKKKVFEKLQADFKISEECIAQWKQTNFMTKLGSISCKSLKGGNIS"}},
  "data": [
    {"variants_of": "B1", "settings": "with parp1_human PARP1, P09874", "values": [
      {"variant": "Y341A", "effect of a mutation on the interaction": "increasing interaction strength"}
    ]}
  ]
}
